# Where no end group is shown, it is not given here. [ ]: non-standard residue; d: D form. Ac6c = NC1(C(=O)O)CCCCC1; cyHex = not defined here; Ac5c = NC1(C(=O)O)CCCC1; Sar = CNCC(=O)O
# Assays:
# Test in all cases: cell-based or functional assay
# [1] = biological target: T1, human angiotensin 2 type 1 receptor (human, UniProt P30556 1-359)
# T1 sequence (looked up): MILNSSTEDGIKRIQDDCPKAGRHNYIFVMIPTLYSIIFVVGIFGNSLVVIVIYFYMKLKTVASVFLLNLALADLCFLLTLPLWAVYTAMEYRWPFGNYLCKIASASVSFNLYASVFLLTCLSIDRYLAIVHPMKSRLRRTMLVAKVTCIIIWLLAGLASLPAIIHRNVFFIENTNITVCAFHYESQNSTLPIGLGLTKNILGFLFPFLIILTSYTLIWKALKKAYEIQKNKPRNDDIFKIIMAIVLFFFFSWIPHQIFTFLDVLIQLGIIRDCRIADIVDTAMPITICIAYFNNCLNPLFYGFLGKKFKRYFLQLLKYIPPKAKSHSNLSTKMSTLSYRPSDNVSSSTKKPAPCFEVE
# [2] = biological target: T2, rat angiotensin 2 type 1 receptor (rat, UniProt P25095 1-359)
# T2 sequence (looked up): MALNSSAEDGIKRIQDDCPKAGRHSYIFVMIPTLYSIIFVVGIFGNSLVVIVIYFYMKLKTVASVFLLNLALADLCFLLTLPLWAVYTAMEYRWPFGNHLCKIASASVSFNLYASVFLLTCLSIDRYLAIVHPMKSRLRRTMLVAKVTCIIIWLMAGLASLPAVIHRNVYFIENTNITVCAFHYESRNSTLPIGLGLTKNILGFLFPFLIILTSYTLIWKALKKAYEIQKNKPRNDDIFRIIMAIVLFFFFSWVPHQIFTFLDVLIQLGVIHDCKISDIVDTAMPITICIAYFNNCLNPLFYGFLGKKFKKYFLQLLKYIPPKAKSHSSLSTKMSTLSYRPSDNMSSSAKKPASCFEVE
# [3] = biological target: T1, human angiotensin 2 type 1 receptor; remark: listed apart in the source
# [4] = biological target: T2, rat angiotensin 2 type 1 receptor; remark: listed apart in the source
Binder,IP1 G-protein assay Span [1],IP1 G-protein assay pEC50 [1],IP1 G-protein assay EC50 [2],IP1 G-protein assay pEC50 [2],beta-arrestin2 assay Span [3],beta-arrestin2 assay Span [4],IP1 G-protein assay EC50 [1],IP1 G-protein assay Span [2],beta-arrestin2 assay EC50 [3],beta-arrestin2 assay pEC50 [3],beta-arrestin2 assay EC50 [4],beta-arrestin2 assay pEC50 [4]
[Sar]RVY[cyHex]HPA (reading uncertain; also: printed as Sar-Arg-Val-Tyr-cyHex-His-Pro-Ala) [SEQ ID NO: 2 (Sar-Arg-Val-Tyr-cyHex-His-Pro-Ala)],< 103,< 9.2,> 0.6 nM,> 9.2,< 101,< 105,–,–,–,–,–,–
[Sar]RVY[Ac5c]HPI [SEQ ID NO: 18 (Sar-Arg-Val-Tyr-cyPen-His-Pro-Ile)],< 103,< 9.2,> 0.6 nM,< 9.2,< 101,< 105,> 1.3 nM,< 104,> 3.2 nM,< 8.5,> 3.2 nM,< 8.5
[Sar]RVY[Ac5c]HPV [SEQ ID NO: 20 (Sar-Arg-Val-Tyr-cyPen-His-Pro-Val)],< 103,< 9.2,> 0.6 nM,< 9.2,< 101,< 105,> 1.3 nM,< 104,> 3.2 nM,< 8.5,> 3.2 nM,< 8.5
[Sar]RVY[Ac6c]HPQ [SEQ ID NO: 38 (Sar-Arg-Val-Tyr-cyHex-His-Pro-Gln)],< 103,< 9.2,> 0.6 nM,< 9.2,< 101,< 105,> 1.3 nM,< 104,> 3.2 nM,< 8.5,> 3.2 nM,< 8.5
XRVYXHPA (not fully specified; X1 Sar; X5 NMeIle) [SEQ ID NO: 58 (Sar-Arg-Val-Tyr-NMeIle-His-Pro-Ala)],–,–,> 0.6 nM,< 9.2,< 101,< 105,–,< 104,–,–,–,–
[Sar]RVY[Ac5c]HPL [SEQ ID NO: 19 (Sar-Arg-Val-Tyr-cyPen-His-Pro-Leu)],< 103,< 9.2,> 0.6 nM,> 9.2,< 101,< 105,> 1.3 nM,–,> 3.2 nM,< 8.5,> 3.2 nM,< 8.5
[Sar]RVY[Ac5c]HPS [SEQ ID NO: 22 (Sar-Arg-Val-Tyr-cyPen-His-Pro-Ser)],–,> 9.2,> 0.6 nM,< 9.2,< 101,< 105,> 1.3 nM,< 104,> 3.2 nM,< 8.5,> 3.2 nM,< 8.5
[Sar]RVY[Ac6c]HPV [SEQ ID NO: 13 (Sar-Arg-Val-Tyr-cyHex-His-Pro-Val)],–,> 9.2,> 0.6 nM,> 9.2,–,< 105,> 1.3 nM,–,–,–,> 3.2 nM,< 8.5
[Sar]RVY[Ac5c]HPT [SEQ ID NO: 21 (Sar-Arg-Val-Tyr-cyPen-His-Pro-Thr)],–,> 9.2,> 0.6 nM,< 9.2,< 101,< 105,> 1.3 nM,< 104,> 3.2 nM,< 8.5,> 3.2 nM,< 8.5
[Sar]RVY[Ac5c]HPF [SEQ ID NO: 24 (Sar-Arg-Val-Tyr-cyPen-His-Pro-Phe)],> 103,< 9.2,> 0.6 nM,< 9.2,> 101,< 105,< 1.3 nM,< 104,> 3.2 nM,< 8.5,> 3.2 nM,< 8.5
[Sar]RVY[Ac6c]HPP [SEQ ID NO: 39 (Sar-Arg-Val-Tyr-cyHex-His-Pro-Pro)],< 103,< 9.2,> 0.6 nM,< 9.2,< 101,< 105,> 1.3 nM,< 104,> 3.2 nM,< 8.5,> 3.2 nM,< 8.5
[Sar]RVY[Ac6c]HPD [SEQ ID NO: 44 (Sar-Arg-Val-Tyr-cyHex-His-Pro-Asp)],–,–,> 0.6 nM,< 9.2,< 101,< 105,–,< 104,> 3.2 nM,< 8.5,> 3.2 nM,< 8.5
[Sar]RVYPHPA [SEQ ID NO: 1 (Sar-Arg-Val-Tyr-Pro-His-Pro-Ala)],–,> 9.2,> 0.6 nM,< 9.2,< 101,< 105,> 10000 nM,< 104,> 3.2 nM,< 8.5,> 3.2 nM,< 8.5
[Sar]RVY[Ac5c]HPM [SEQ ID NO: 23 (Sar-Arg-Val-Tyr-cyPen-His-Pro-Met)],< 103,< 9.2,> 0.6 nM,< 9.2,< 101,< 105,> 1.3 nM,< 104,> 3.2 nM,< 8.5,> 3.2 nM,< 8.5

# From US20150105316A1 (TREVENA, published 2015)
